Measured values taken from patent publication US20220017612A1 (TILOS THERAPEUTICS, published 2022).
Changes are numbered by the printed parent chain. Numbers in names are those of the source. One block for each binder: values may come before it.

Experiments:
[1] = molecular target: T1, human LAP-TGFβ1 overexpressed on cells (human, UniProt P01137 30-390); test: flow cytometry; black bar HT1080-huB1, grey bar HT1080-null
T1 construct: HT1080 or P3U1 cells overexpressing wild-type human LAP-TGFβ1; also called HT1080-huB1; HT1080-hβ1

[2] = molecular target: T2, human GARP and human LAP-TGFβ1 co-expressed on P3U1 cells (human, UniProt Q14392 20-662); test: flow cytometry competition with biotin-28G11 (0.31 µg) on P3U1 cells with human GARP and LAP-TGFβ1
T2 construct: whole, on cells; also called P3U1 cells over-expressing human GARP and LAP-TGFβ1
Method: In the first experiment, the various humanized 28G11 candidates were tested for retention of binding to human LAP-TGFβ1 by competition with biotin-28G11 in a flow cytometry assay.
P3U1 cells over-expressing human GARP and LAP-TGFβ1 were placed in a round-bottom 96-well plate at density of 40,000 cells/well. The cells were washed with FACS buffer (25 mM HEPES, 2 mM EDTA, 2% fetal bovine serum in Hank's Balanced Salt Solution). 50 μL of 1:200 diluted TruStain Mouse FcX (BioLegend) was added to each well, followed by 50 μL of 100 ng/μL of humanized 28G11 construct (H0L0, H0L1, H0L2, H0L3, HILO, H1L1, H1L2, H1L3, H2L0, H2L1, H2L2, H2L3). The antibody was allowed to bind for 10 minutes. 50 μL of 6.2 ng/μL of biotinylated murine hybridoma 28G11_(hyb) was added to each well. The biotinylated antibody was allowed to bind for 10 minutes, and then the cells were washed twice with FACS buffer. The cells were labeled for 15 minutes with allophytocyanin-streptavidin (BioLegend), washed twice with FACS buffer, and analyzed by flow cytometry.

LAP-TGFβ1 on THP-1 cells = molecular target: T3, LAP-TGFβ1 on THP-1 cells (Homo sapiens, UniProt P01137); test: flow cytometry, THP-1 cells, % positive cells
T3 construct: cell surface, endogenous; also called LAP+ THP-1 cells
Method: Anti-LAP antibodies were tested for their ability to bind to THP-1 cells, a cell line derived from a patient with acute monocytic leukemia that is reported to express LRRC33. THP-1 cells were incubated with FACS buffer and human Fc block followed by incubation with varying concentrations of Alexa 647 conjugated 28G11_(hyb), 22F9_mIgG2a, 20E6_mIgG2a, 17G8_hIgG1, 24E3_hIgG1, 2C9_mIgG2a, or mIgG2a isotype control. Cells were analyzed by flow cytometry and graphed as percent positive THP-1 cells or median fluorescent intensity (MFI) of anti-LAP binding. As shown in FIGS. 10A and 10B, antibodies 22F9, 17G8, 24E3, 20E6, and 2C9 display strong binding to THP-1 cells. […] In another experiment, the binding of 20E6 mIgG2a and 7H4 hyb to THP-1 cells was compared using the methods described above. […] In a separate experiment THP-1 cells were incubated with FACS buffer and human Fc block followed by incubation with 5 ug/ml of Alexa 647 conjugated 28G11_hyb, 22F9_mIgG2a, 20E6_mIgG2a, 2C9_mIgG2a, or IgG2a isotype control. Cells were analyzed by flow cytometry and gated as single cells. Representative dot plots are shown in FIG. 10D; in these plots, antibodies were at 5 ug/ml.

LAP-TGFβ1 on U937 cells [3] = molecular target: T4, LAP-TGFβ1 on U937 cells (Homo sapiens, UniProt P01137); test: flow cytometry dot plot against GARP, U937 cells, Alexa 647 antibody at 10 ug/ml
T4 construct: cell surface, endogenous; also called LAP+ U937 cells
Method: (§1) Anti-LAP antibodies were tested for their ability to bind to U937 cells, a myeloid cell line derived from a patient with histiocytic lymphoma. U937 cells were incubated with FACS buffer and human Fc block followed by incubation with varying concentrations of Alexa 647 conjugated 28G11_hyb, 22F9_mIgG2a, or 20E6_mIgG2a. In a separate experiment U937 cells were incubated with FACS buffer and human Fc block followed by incubation with 10 ug/ml of Alexa 647 conjugated 28G11_hyb, 22F9_mIgG2a, 20E6_mIgG2a or mIgG2a isotype control (FIGS. 10E and 10F). Representative dot plots are shown in FIG. 10G; in these plots, antibodies were at 10 ug/ml.

LAP-TGFβ1 on U937 cells [4] = molecular target: T4, LAP-TGFβ1 on U937 cells; test: flow cytometry, U937 cells, Alexa 647 antibody, % LAP+ cells
Method: as §1

[5] = molecular target: T1, human LAP-TGFβ1 overexpressed on cells; test: cell-based or functional assay
[6] = molecular target: murine LAP-TGFβ1 overexpressed on cells (mouse, UniProt P04202 30-390); test: cell-based or functional assay
[7] = molecular target: T1, human LAP-TGFβ1 overexpressed on cells; test: flow cytometry; black bar HT1080-huB1, grey bar HT1080

T4 sequence (P01137 30-390 limits assumed): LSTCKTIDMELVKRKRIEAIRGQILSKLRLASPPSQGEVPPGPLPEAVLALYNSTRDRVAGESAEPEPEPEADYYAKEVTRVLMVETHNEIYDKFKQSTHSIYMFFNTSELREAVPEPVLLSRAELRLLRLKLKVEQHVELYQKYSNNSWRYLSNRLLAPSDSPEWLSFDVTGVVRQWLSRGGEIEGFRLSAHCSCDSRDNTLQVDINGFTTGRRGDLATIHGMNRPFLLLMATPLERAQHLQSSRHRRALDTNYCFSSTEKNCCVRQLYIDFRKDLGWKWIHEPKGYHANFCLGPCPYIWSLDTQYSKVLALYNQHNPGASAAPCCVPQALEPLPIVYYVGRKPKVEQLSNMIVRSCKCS
T1 sequence (P01137 30-390): as the sequence (P01137 30-390 limits assumed) above
T2 sequence (chain, as listed by the source, chain 1 of 2): as the sequence (P01137 30-390 limits assumed) above
T2 sequence (Q14392 20-662, chain 2 of 2): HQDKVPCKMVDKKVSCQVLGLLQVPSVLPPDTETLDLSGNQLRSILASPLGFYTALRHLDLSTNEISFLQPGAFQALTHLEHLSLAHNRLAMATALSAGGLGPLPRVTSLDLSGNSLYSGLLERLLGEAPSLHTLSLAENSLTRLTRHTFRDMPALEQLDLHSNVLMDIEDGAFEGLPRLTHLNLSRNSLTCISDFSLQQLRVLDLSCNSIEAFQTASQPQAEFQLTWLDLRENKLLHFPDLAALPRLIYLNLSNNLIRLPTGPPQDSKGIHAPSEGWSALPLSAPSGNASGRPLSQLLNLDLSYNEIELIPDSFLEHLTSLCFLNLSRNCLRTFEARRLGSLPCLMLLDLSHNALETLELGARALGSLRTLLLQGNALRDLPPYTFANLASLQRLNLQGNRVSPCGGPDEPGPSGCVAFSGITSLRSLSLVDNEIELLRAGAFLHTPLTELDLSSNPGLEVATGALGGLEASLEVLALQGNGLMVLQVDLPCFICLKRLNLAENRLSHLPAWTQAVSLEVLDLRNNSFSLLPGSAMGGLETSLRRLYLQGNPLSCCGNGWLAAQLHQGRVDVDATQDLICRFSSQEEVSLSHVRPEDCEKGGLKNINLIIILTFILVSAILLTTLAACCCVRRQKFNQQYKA
T3 sequence (P01137 30-390 limits assumed): as the sequence (P01137 30-390 limits assumed) above
Sequence of murine LAP-TGFβ1 overexpressed on cells (P04202 30-390): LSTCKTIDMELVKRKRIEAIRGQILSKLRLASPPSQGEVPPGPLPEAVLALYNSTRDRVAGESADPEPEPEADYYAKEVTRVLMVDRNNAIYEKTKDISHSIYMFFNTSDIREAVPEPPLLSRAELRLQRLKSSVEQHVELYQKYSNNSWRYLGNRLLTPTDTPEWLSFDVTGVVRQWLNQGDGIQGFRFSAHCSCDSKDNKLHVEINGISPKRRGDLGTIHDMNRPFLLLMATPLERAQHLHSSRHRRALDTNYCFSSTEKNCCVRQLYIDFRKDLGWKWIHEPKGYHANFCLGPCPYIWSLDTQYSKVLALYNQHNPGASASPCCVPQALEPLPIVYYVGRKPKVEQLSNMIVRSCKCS

B1: 20E6 H0.1 construct (antibody, human IgG1, kappa, V domains shown)
VH: QVQLVQSGAEVKKPGASVKVSCKASGYTFTSYWMHWVRQAPGQGLEWMGRIDPNSGGIKYAQKFQGRATLTVDTSTSTAYMELSRLRSDDTAVYYCARWDYGGYFDVWGQGTLVTVSS
VL: DIQMTQSPSSLSASVGDRVTITCRASQDITNYLNWYQQKPGKAVKLLIYYTSRLHSGVPSRFSGSGSGTDYTLTISSLQPEDFATYFCQQGDTLPWTFGQGTKLEIKR
binding result [1]: binds

B2: 28G11_H0L3 (antibody, human IgG1, kappa, V domains shown)
VH: EVQLVESGGGLVQPGGSLRLSCAASGFTFSDYYMSWVRQAPGKGLEWVGFIRNKPNGYTTEYSASVKGRFTISRDDSKNSLYLQMNSLKTEDTAVYYCARYTGGGYFDYWGQGTLVTVSS
VL: B1 VL with V19L, T22S, T30S, A43T, F83V
binding result [2]: no binding (tested: 5 µg competitor)

B5: 22F9_mIgG2a (antibody, V domains shown)
VH: QVQLQQPGAELVKPGASVKLSCKASGYTFTSYWMHWVKQRPGQGLEWIGMIHPNSGSTNYNEKFKSKATLTVDKSSSTAYMQLSSLTSEDSAVYYCAYYDYDGFFDVWGTGTTVTVSS
VL: DIVLTQSPASLDVSLGQRATISCRASKSVSTSGYSYMHWYQQKSGQPPKLLIYLASNLESGVPARFSGSGSGTHFTLNIHPVEEEDAATYYCQHSRELPYTFGGGTKLEIK
notes: also called 22F9_IgG2a
% of cells in Q1 (antibody axis positive, GARP negative) (LAP-TGFβ1 on U937 cells [3]): 43.8% | % of cells in Q2 (antibody axis positive, GARP positive) (LAP-TGFβ1 on U937 cells [3]): 0.44% | EC50 (read off the curve) (LAP-TGFβ1 on U937 cells [4]): ~20 µg/mL | IC50 of inhibition of TGFβ1 activation [5]: 1.8 µg/mL | IC50 of inhibition of TGFβ1 activation [6]: 1 µg/mL

B6: 22F9_Y98R (antibody, human IgG1, kappa, V domains shown)
VH: B5 VH with Q5V, L11V, Q82E, T87R, S91T, Y98R, T110Q, T113L
VL: DIQLTQSPSSLSASVGDRVTITCRASKSVSTSGYSYMHWYQQKPGKAPKLLIYLASNLESGVPSRFSGSGSGTDFTLTISSLQPEDFATYYCQHSRELPYTFGGGTKVEIKR
notes: also called 22F9_H5L0 with VH Y98R
binding result [7]: binds

Other lines, results leading:

binding result [2]: no binding (tested: 5 µg competitor)
B3: 28G11_H2L0 (antibody, human IgG1, kappa, V domains shown)
VH: B2 VH with S30T, V48L, D76N, K78Q, N79S, V116L
VL: B1 VL with T30S, A43V, V44P, Y71F, F83V, F87Y

binding result (LAP-TGFβ1 on THP-1 cells): no binding (tested: 100 ug/ml)
B4: 7H4 (antibody, mouse IgG2b, kappa, V domains shown)
VH: DVQLQESGPGLVKPSQSLSLTCSVTGYSITSGYYWNWIRQFPGNKLEWMGYISYDGTNNYNPSLKNRISITRDTSKHQFFLKLNSVTTEDTATYYCARSFYNNYFDFWGQGTTLTVSS
VL: DIQMTQSPSSLSASLGGKVTITCKASQDIDKYIAWYQHKPGKGPRLLIHYTSTLQPGIPSRFSGSGSGRDYSFNISNLEPEDIATYYCLQYDNLRTFGGGTKLEIKR
notes: also called 7H4 hyb; 7H4_(hyb)
